Target: Endogenous β-catenin of SW480 human colon carcinoma cells (human) (UniProt P35222)
Assay: cell-based or functional assay

Chain of Endogenous β-catenin of SW480 human colon carcinoma cells (human) (P35222 2-781): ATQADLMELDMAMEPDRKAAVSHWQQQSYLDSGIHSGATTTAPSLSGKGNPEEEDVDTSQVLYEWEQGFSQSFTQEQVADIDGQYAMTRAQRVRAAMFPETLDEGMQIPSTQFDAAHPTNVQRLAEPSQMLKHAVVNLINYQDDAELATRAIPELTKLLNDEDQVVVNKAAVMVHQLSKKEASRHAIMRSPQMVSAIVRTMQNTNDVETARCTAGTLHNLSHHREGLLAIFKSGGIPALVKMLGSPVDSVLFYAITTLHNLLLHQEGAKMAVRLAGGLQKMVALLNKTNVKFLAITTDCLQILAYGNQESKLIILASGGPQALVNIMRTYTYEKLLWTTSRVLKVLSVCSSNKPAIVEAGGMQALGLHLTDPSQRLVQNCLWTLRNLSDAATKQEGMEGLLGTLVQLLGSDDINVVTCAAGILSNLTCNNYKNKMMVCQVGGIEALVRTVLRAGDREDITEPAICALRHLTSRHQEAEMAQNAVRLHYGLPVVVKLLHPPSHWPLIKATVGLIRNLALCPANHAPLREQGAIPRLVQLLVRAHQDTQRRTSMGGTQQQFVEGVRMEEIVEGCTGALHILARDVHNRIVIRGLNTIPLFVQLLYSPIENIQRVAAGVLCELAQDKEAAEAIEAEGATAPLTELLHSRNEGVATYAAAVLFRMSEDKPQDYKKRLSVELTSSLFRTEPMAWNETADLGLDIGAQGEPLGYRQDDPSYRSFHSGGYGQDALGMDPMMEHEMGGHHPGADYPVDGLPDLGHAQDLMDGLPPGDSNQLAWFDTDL

“Cytoplasmic tail of N-cadherin (amino acids 752-912) fused to the C-terminus of GFP (from UniProt B2KI42 746-906)” gave an inhibition of luciferase activity (LEF-1-driven transactivation) in SW480 cells of 80%.

In the case of “Cytoplasmic tail of mouse E-cadherin (amino acids 735-884) fused to the C-terminus of GFP (from UniProt P09803 720-869)”, the inhibition of luciferase activity (LEF-1-driven transactivation) in SW480 cells is reported as 75%.

In the case of “GFP-E72 (C-terminal 72 amino acids of mouse E-cadherin, residues 813-884, fused to the C-terminus of GFP) (from UniProt P09803 798-869)”, the inhibition of luciferase activity (LEF-1-driven transactivation) in SW480 cells is reported as 60%.

Substance “GFP-N71 (C-terminal 71 amino acids of N-cadherin, residues 842-912, fused to the C-terminus of GFP) (from UniProt B0KW95 836-906)” has an inhibition of luciferase activity (LEF-1-driven transactivation) in SW480 cells of 70%.

Work on “IL2R/N-cadherin chimera (extracellular and transmembrane domains of IL2Rα fused to the intracellular domain of N-cadherin, amino acids 752-912)” yielded an inhibition of TOPFLASH-responsive transcription (luciferase) in SW480 cells of 50%.

Reference: patent publication US20020045591A1, “Methods and therapeutic compositions for treating cancer” (priority 1998, published 2002)
